Experiment [1] deals with T1, Wildtype human PAR2 expressed on cells (human, UniProt P55085 37-397).
T1 sequence: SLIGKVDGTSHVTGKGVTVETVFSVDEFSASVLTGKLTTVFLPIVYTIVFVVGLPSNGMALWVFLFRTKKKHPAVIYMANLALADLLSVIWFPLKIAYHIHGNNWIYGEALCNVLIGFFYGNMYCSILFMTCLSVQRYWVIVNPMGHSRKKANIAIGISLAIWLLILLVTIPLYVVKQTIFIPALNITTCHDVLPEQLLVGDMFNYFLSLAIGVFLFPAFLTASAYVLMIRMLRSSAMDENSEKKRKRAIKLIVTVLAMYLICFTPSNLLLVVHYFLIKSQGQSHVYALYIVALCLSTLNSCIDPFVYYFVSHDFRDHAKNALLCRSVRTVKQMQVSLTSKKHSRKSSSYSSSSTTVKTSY
The experiment in a line: cell-based or functional assay.

The target in experiment [2] is T2, Mouse PAR2 on Flp-In CHO cells (mouse, UniProt P55086 39-399).
T2 construct: whole, on cells
T2 sequence (looked up): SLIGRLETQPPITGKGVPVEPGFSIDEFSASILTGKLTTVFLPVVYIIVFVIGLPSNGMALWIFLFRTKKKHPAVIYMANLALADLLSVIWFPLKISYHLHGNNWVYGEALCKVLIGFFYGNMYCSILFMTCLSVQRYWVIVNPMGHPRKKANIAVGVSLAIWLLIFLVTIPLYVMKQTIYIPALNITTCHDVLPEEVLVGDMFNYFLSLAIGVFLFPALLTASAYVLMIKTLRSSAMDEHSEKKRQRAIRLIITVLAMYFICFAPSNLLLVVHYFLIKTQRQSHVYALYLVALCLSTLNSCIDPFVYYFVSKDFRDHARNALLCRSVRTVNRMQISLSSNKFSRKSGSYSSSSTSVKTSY
Briefly: cell binding, flow cytometry/IntelliCyt. In general terms: Flow cytometry measures light scatter and fluorescence of single cells or particles in a stream.

Experiment [3] deals with T3, PAR2-3: P157: 1-377, glycosylated, pBacMamHisStrepII, full length (human, UniProt P55085 26-377).
T3 construct: detergent-solubilised analyte in SPR, or on infected cells in flow cytometry; also called FL-N PAR2 StaR; FL-N StaR; not shown: C-terminal StrepII and deca-histidine tags
T3 sequence: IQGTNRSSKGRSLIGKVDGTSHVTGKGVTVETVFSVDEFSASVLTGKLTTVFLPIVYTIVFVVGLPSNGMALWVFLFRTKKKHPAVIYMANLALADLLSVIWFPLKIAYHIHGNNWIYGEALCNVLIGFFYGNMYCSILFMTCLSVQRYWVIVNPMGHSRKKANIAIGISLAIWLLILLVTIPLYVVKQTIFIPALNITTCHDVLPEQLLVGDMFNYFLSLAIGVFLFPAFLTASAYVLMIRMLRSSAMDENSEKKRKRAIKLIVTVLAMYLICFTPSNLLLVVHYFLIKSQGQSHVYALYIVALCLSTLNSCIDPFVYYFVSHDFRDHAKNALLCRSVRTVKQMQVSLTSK
The experiment in a line: SPR Biacore T200; IgG captured on anti-human IgG, 250 nM PAR2 analyte; 1:1 model. The procedure: (§1) The assay of PAR2 interaction with anti-PAR2 antibodies was carried out using a Biacore T200 instrument (GE Healthcare). Anti-human IgG antibody (Human Antibody Capture Kit, GE Healthcare) was immobilised by amine coupling on a sensor chip CM3 (GE Healthcare) to a surface density of 3500 to 4500 resonance units (RU). Immobilisation was carried out at 25° C. in HBS-EP+ buffer (GE Healthcare). The buffer was then changed to 50 mM HEPES, pH 7.5, 150 mM NaCl, 0.02% LMNG, 0.002% CHS. Each cycle of the PAR2-antibody interaction assay consisted of antibody capture (100 nM antibody injected for 2 min at a flow rate of 5 μL/min), PAR2 injection (blank or 250 nM, with contact and dissociation times of 2 and 3 minutes, respectively, at a flow rate of 20 μl/minute), and chip surface regeneration (30 seconds at 20 μl/minute) using the regeneration solution from Human Antibody Capture Kit (GE Healthcare). […] Measurements between each experimental data set were within the acceptable margins for this methodology.
The antibodies were captured on anti-human IgG chip surface followed by injection of 250 nM PAR2. The data were fitted to 1:1 interaction model.
A general note: SPR reads the build-up and loss of mass on a sensor chip optically.

The target in experiment [4] is T3, PAR2-3: P157: 1-377, glycosylated, …. Briefly: SPR; IgG immobilised, detergent solubilised FL-N PAR2 StaR as analyte. The procedure:
For three purified IgG1f_AEASS clones Y021171, Y022054 and Y022063 affinities to human PAR2-3 variant (P157: 1-377, glycosylated, pBacMamHisStrepII, full length) were determined by SPR immobilizing the IgG and probing with detergent (LMNG/CHS) solubilized FL-N PAR2 StaR. Affinities were 22 nM and 20 nM for Y022063 and Y021171, respectively.
as §1

The results in this text go back to patent US20250313621A1 (NXERA PHARMA UK, published 2025).

B1: Y022054 (antibody, V domains shown)
VH: EVQLLESGGGLVQPGGSLRLSCAASGFTFSSYAISWVRQAPGKGLEWVSAISGSGGSTYYAESVKGRFTISRDNSKNTLYLQMNSLRAEDTAVYYCARGYAEFGVWGQGTLVTVSS
VL: DIQMTQSPSSLSASVGDRVTITCRASQSISSYLNWYQQKPGKAPKLLIYAASSLQSGVPSRFSGSGSGTDFTLTISSLQPEDFATYYCQQTWGGPQTFGQGTKVEIKR
By Kd is commonly meant the constant that tells how readily two partners part at equilibrium. Lower therefore signals tighter binding. As usually defined, the koff is the rate constant with which the complex falls apart. A lower koff goes with a long-lived complex. Broadly, the kon is the second-order rate constant of association. Higher therefore signals faster complex formation. On to B1, for which the “% Max Inhibition AP, IP-One” value in experiment [1] was found to be 17%. The binding result in experiment [2] was “no binding”. Further, in experiment [3], the dissociation constant (Kd) was found to be 2.5 nM, the koff was 0.00029 s⁻¹ and the on-rate (kon) was determined as 120000 M⁻¹ s⁻¹. Moreover, the “fold higher affinity compared to Y022063 and Y021171” value in experiment [4] came out at 10 fold.
